Sequences and labels used below:
B1: W2.S1.1_R6F-1 (ssRNA)
RNA: GGGAGAGCAUUGCUCGUUAGUGGCGUUACAGCAGUUGCCACAAGGCACGUUUUAGCUAGUGACUCGGAUCAUCUAGG
modifications: 2'-OMe at all nucleotides
B2: W2.S1.1_R6P-1 (ssRNA)
RNA: GGGAGAGCAUUGCUCGUUAGUGGAGCCUAUGGUUGUUGUGUGCUCCUCGCGGGAGCUAGUGACUCGGAUCAUCUAGG
modifications: 2'-OMe at all nucleotides
B3: CT aptamer clone 3 (ssRNA)
RNA: GGGAGAGCAUUGCUCGUUAGUGUCGUCUUAAACUUCGUGUUUUUGGUCGUUGUAGCUAGUGACUCGGAUCAUCUAGG
B4: CT aptamer clone 4 (ssRNA)
RNA: B3 RNA with A30C, C33U, U34C, U35A, C36U, U38C, G39A, U42G, U53A
B5: CT aptamer clone 10 (ssRNA)
RNA: GGGAGAGCAUUGCUCGUUAGUGUCGUCUCGAGUUGUGAUUACUCGUGGUCGUAAGCUAGUGACUCGGAUCAUCUAGG
B6: CT aptamer clone 5 (ssRNA)
RNA: GGGAGAGCAUUGCUCGUUAGUGUCGUCUCGCGAACGUUAAUCGCGUGGUCGUGAGCUAGUGACUCGGAUCAUCUAGG
B7: CT aptamer clone 7 (ssRNA)
RNA: GGGAGAGCAUUGCUCGUUAGUGUCGUCUUGACCUUUGCUGGUCAUGGUCGUAAAGCUAGUGACUCGGAUCAUCUAGG
B8: CT aptamer clone 1 (ssRNA)
RNA: GGGAGAGCAUUGCUCGUUAGUGUCGUCUCGGAGUUUAUCUCCGUGGUCGUUGAAGCUAGUGACUCGGAUCAUCUAGG
B9: CT aptamer clone 6 (ssRNA)
RNA: B8 RNA with G31A, G33U, U34C, U35G, U36A, U38C, C39U, C41U, G52A
B10: CT aptamer clone 11 (ssRNA)
RNA: GGGAGAGCAUUGCUCGUUAGUGUCGUCUCAUCGAAUGGUCGGUGUGGUCGUUAAGCUAGUGACUCGGAUCAUCUAGG
B11: CT aptamer clone 8 (ssRNA)
RNA: B10 RNA with C29A, A34G, A35U, G37U, G38U, U39C, G44U, A53G
B12: CT aptamer clone 2 (ssRNA)
RNA: GGGAGAGCAUUGCUCGUUAGUGUCGUCUUGGUAAUUCCCUUUCUGGUCGUUUAAGCUAGUGACUCGGAUCAUCUAGG
B13: CT aptamer clone 9 (ssRNA)
RNA: GGGAGAGCAUUGCUCGUUAGUGUCGUCUCGGGAUUUUUCCCGUGGUCGUUCAUAGCUAGUGACUCGGAUCAUCUAGG

Where a chain is given by its changes, count along the chain named.

One series has as its target KRAS (UniProt P01116 P01116:1-189). Description: plate binding compared to BSA; only central region printed.
In the case of B1, the binding result is on record as “binds”. Regarding B2, the binding result was “binds”.

In the next series the target is Cholera toxin (holotoxin and/or B subunit) (UniProt P01555;P01555;P01556 P01555:19-212,P01555:213-258,P01556:22-124).
Assay: not given
As for B3, the binding result is listed as “binds”. For the molecule B4, the binding result is listed as “binds”. On the same count and under the same terms, the same measure for B5: “binds”; for B6: “binds”; for B7: “binds”. For the molecule B8, the binding result is “binds”. With B9, the binding result is recorded as “binds”. Same read-out and setting: the same measure for B10: “binds”. On the same count and under the same terms, the value for B11 was “binds”. B12: the binding result was “binds”. As to B13, the binding result is “binds”.

The values are drawn from patent US20220056425, “RNA PO[…] FOR […] OF MODIFIED RNA” (GUARDIAN THERAPEUTICS, LLC, published 2022).
